Experimental data from the supplement of paper PMC11502859.

tested on: HEK293T; test: median enrichment of reporter reads in eGFP-reduced (low/intermediate) vs eGFP-high sorted cells (eGFP-extension fusion abundance) (ratio); higher = stronger loss of eGFP-fusion protein abundance (more destabilising extension)
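Further: lentiviral eGFP-IRES-mCherry reporter pool sorted by FACS 96 h post-transduction, gated on mCherry-high cells, Illumina read counts normalized per million, median across four biological replicates.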

| Substance | median enrichment |
| --- | --- |
| LGEMSLSFLLPF [C10orf82] | 3.93 |
| LGFRSAT [KIF15] | 1.28 |
| LGGRCRKHLEQPQSHGAEGAGAAPVIGRGIPSVCSASCLLNKGLFLTHK [CUL9] | 14.9 |
| LGGVWGHPS [ZG16B] | 2.14 |
| LGHANNQSCSNFKPVTAHNRPGSELCEGP [CDON] | 0.661 |
| LGHRQESVWAGLFNMVFAVLPPWGPWSDNIVSLVRLSRCLIRTANGASPTPPRVRPPFHQRVSSQRPPASCPAAQEEKEGLNS [PDGFB] | 4.11 |
| LGKLPCRA [ZNF75D] | 0.566 |
| LGLGRAHSAG [ATPAF2] | 10 |
| LGLLALTLQPTLAVWPSPGSFPAPLPLFPVLLNSPSWRVQALGMGGTRPHSFHRALRPDTADQPHSAQEAASGVGAQRGTAAS [BAP1] | 8.12 |
| LGLLHLPPSYLVPCRAPGLFGGTLGCTSGLPAPAAWAPPS [REEP4] | 5.64 |
| LGLLPLGPLTLSGWWTTKYNPVYNLKIYFTFVLLYLFIKG [SMAD4] | 5.85 |
| LGLRVHTGWQEASKGS [SERPINH1] | 4.89 |
| LGNCWLAWHHHTATASHLLCQGGTSSAGACPVLCGRCCVLLNTAGPAITPWAWRSLGVSRCGGGQPGWPHSITGTACLGTRFP [PIGQ] | 5.81 |
| LGP [COLQ] | 0.326 |
| LGPVAGRPAPAPPPPTGVPAHSCGKGGEGRRARPEQGAGGRAQYLTRAAVLINVPMAGPRSEPASSATVTFSLRDGGGGSLSR [DUSP9] | 2.08 |
| LGQAAPVLGEGG [DEPDC5] | 1.71 |
| LGRIMASFQNSFS [OR2AG1] | 7.84 |
| LGRLCPLPASLLCFPSPVSSLPSRPRHLPSVPWLSRTFYPTVRPQRGQDKPCPDAFDRQLCVLVDRCRNKEEMESAPEKLQIQ [H6PD] | 6.07 |
| LGRTSALSDRTLRAMLPCHP [MRGPRX3] | 7.42 |
| LGSVPGWPVPITSYAHLPPPVFPPLDWWPLPWGRSPHVPAPGDRQRRQQAAFVAQQGALPSLLPSCFS [CST3] | 4.44 |
| LGSVQGLSH [CST5] | 0.51 |
| LGSWRHWRGQEG [Degron KLHDC3] | 8.96 |

| Substance | median enrichment |
| --- | --- |
| LGTQASPSLTAEVRNKRWFRVPA [PSMC3] | 8.36 |
| LGYRFWKHLSLGPKEVLLPFWASITQVVPVLTAEETSLPLFVLSPSFFNSV [MS4A8] | 15.7 |
| LHGFQASGSLTISLLRVSPGNCLTKSQAQGLLSIYLISERLF [LIMCH1] | 33.9 |
| LHGPCMLINASSEM [TMEM205] | 5.79 |
| LHSCTPISRAASLPSRGLQQCAWLAAAPPRAPWPRRCQPT [THSD4] | 7.14 |
| LHSL [ZNF443] | 0.555 |
| LHTELFIDTPHDCISRTHLLIILDPRETITSPSRQWRQIKISAEKEGHVEPQKHFYSG [SNTG1] | 9 |
| LHTQSPGVGHTAVISQS [ALLC] | 0.756 |
| LHVKTFILVSTVFQ [SCGB1D2] | 6.88 |
| LIA [ACAT2] | 1.03 |
| LIFFYQEG [PTEN] | 5.69 |
| LIFLI [MAP2] | 6.91 |
| LIGCMEK [BTN3A1] | 11.1 |
| LIHGAEG [SLC16A1] | 1.29 |
| LIHSQGKLGNSEEKSLPSFWMNCMSSGLSTTM [RNF32] | 10 |
| LIIMLKSALTFLR [MCF2L2] | 15.2 |
| LILKLHPQ [BZW1] | 4.65 |
| LILYPSAMATRRTNNCPPLEVRLIEALDPNKIRIRICNGPGAVPHACHPSTLGG [RBPMS] | 3.14 |
| LINARSHPMIILNYSHYF [LRRIQ3] | 6.8 |
| LIPQPGLPVHLLTLLKSSIVVIL [CD46] | 10.7 |
| LIPVDPQGLAKARDTQREMLVIPLENLASNFLYV [KRT38] | 39.9 |
| LIQHREVAACDLTHRFLCFLSHPGNLAFWFLPATLRLSSSAFQ [FHL2] | 7.42 |

| Substance | median enrichment |
| --- | --- |
| LISHSYLLKYI [ELAVL4] | 7.49 |
| LISLSKSIKRESSLQK [SYNGR4] | 8.85 |
| LKDRFFKLT [RBBP6] | 3.7 |
| LKEIWEIL [ZNF418] | 16.1 |
| LKELIFNFSLQTGQH [TAF7] | 6.43 |
| LKG [SSBP1] | 0.599 |
| LKH [HOXA2] | 0.608 |
| LKILVLLNYLI [TIPARP] | 10.8 |
| LKINC [FGG] | 0.827 |
| LKKKKG [TNFAIP6] | 3.07 |
| LKKKKKKALAFSCLFC [PCDH17] | 25.4 |
| LKKKKQQVMELHILVTQWTIIGSHWKSGKNPWRLSFSDILPNALLSRIFVSFCLIFWGVFVVVGLFFVFFF [PPP1R12A] | 5.8 |
| LKKNPRKNKS [NME5] | 1.1 |
| LKLQLNRGSRKLLSLRGGV [MIP] | 14.1 |
| LKNCLEELY [EBF1] | 2.5 |
| LKNKSPLQNTPPSHSAPQLPTTARLSSFASVASPALHALAGTVAAAFSCSVMPSSCLKQKKIMHCVF [STXBP1] | 6.42 |
| LKPERIVK [OR2A25] | 0.737 |
| LKPGC [KRTAP1-4] | 0.613 |
| LKPPSAGDPDKMAP [KRTAP1-1] | 0.285 |
| LKQPV [RIC3] | 1.01 |
| LKSKLVVLQLCVTFSPSAVSVQHLFHKCFVFSNTVFTTLLACICMFYTKAYTVLCEAIRSRKGIVNNIKHFYTKIICFVIRF [SLC44A5] | 2.32 |
| LKSP [SPATA5L1] | 0.47 |

| Substance | median enrichment |
| --- | --- |
| LKTPHPSLLECVWPFSSFSWQHQLGCFLCVWPQVSK [DUSP6] | 6.83 |
| LKVLAGFT [DACH2] | 4.2 |
| LKVSVNLQC [ZFR] | 6.3 |
| LKWAEPKFGVLHRAPFLHPWGGAQLGATLTMPRPHPVQHSQSSHLHPRTVGAGRHFPLEHVLRSITLGPTARLSLPPGSCMRS [SCARA5] | 5.99 |
| LLAG [QKI] | 4.55 |
| LLAL [MS4A5] | 7.23 |
| LLASIS [TENT2] | 5.22 |
| LLC [OR10A3] | 3.73 |
| LLCKEYGIAKISLVANISGKVHIFILNSHSFEL [MYNN] | 4.26 |
| LLECEISVGQTTRVCVCVLMESSLVVSSSFFLVTVLLNLIK [PET117] | 9.64 |
| LLEWIYDVPLRRSISATILI [HMGCLL1] | 20.6 |
| LLGGPGRRVPPSPCQGPGDPLPGCLRLLLRRGNAKKEKEKPRARPLPPAVHCAASSVPGLTVPLSSAPARQGTCSQPWVDLFF [NRXN2] | 6.99 |
| LLHERMQRMQFPGCAVDFFQQV [CEP112] | 20.7 |
| LLHMQKDSAIYLKID [APBB2] | 11.6 |
| LLK [HGF] | 1.66 |
| LLKTCSTTVLDTH [ATF2] | 8.11 |
| LLL [Leu03] | 4.12 |
| LLLEIRLLQLDV [CDC27] | 10.6 |
| LLLL [Leu04] | 9.42 |
| LLLLL [Leu05] | 4.74 |
| LLLLLL [Leu06] | 6.86 |
| LLLLLLL [Leu07] | 12.7 |

| Substance | median enrichment |
| --- | --- |
| LLLLLLLL [Leu08] | 6.62 |
| LLLLLLLLL [Leu09] | 11.2 |
| LLLLLLLLLL [Leu10] | 14.7 |
| LLLPADLWIRSLLTGCVTLGPELPLSGPQRPYEGPLLQEHPHDIAFGGAPVACRIACGLCNLLRFKTDGHMCQWGSLSPGPKK [JAK3] | 5.04 |
| LLLPGGEQPTRCRFALRGASYIGTLLSLQNDDTNANDQM [TFB1M] | 5.57 |
| LLLPLGFTSQTQPLEQPDPAE [CHAT] | 6.49 |
| LLLPRSWATP [CEP72] | 4.2 |
| LLMMFQKPK [TGIF2LX] | 8.04 |
| LLQGSKLQR [OR7A5] | 10.4 |
| LLRDPAPPL [AHSP] | 4.96 |
| LLRG [ARPP19] | 4.64 |
| LLRPGALGARP [APOBR] | 9.86 |
| LLRPHVKPPCPSTLPIALQRSSSWMTQI [RESP18] | 7.12 |
| LLSITKVYSKIIF [HNMT] | 7.95 |
| LLTLS [BBS5] | 10.2 |
| LLTVFHKEDV [ATP2A2] | 10.9 |
| LLYSILWSSSSVARPLILSFAHVHPN [KCNK17] | 25.2 |
| LMDHG [GLUD2] | 1.6 |
| LMGCSLLLSFLGLLCFAVLENHKERNSYGEVRKTEKDSCVKLFFACKLLHFKRPPLFLQRTFFAQLWTLSMVP [DLX5] | 11.5 |
| LMLPGIK [CDV3] | 4.97 |
| LMPSTAADLWLDLGKGSIVLGKSTRSCKLGIHS [AGBL4] | 8.11 |
| LMSMSEGKENFGHQNPAPSELKELIYFMKLILLCVCSWC [GALNT15] | 12.1 |

| Substance | median enrichment |
| --- | --- |
| LNAFLASSAGGLSLGRGDSTHHWNFADRKRFLFSVL [KMT2C] | 16.9 |
| LNCSQLEML [DNAJC24] | 0.695 |
| LNE [ZCCHC2] | 0.346 |
| LNFHTEF [TP53BP2] | 0.758 |
| LNFNKTFKITEIFKI [LIAS] | 9.41 |
| LNFQQRPSKDILQDSVIVNIWKVLEIFIVCKYCKCIGIKLSPPLLYETAHWSL [PTHLH] | 0.919 |
| LNGSHSVTQAGVKWPNHSSLQPQPGRFR [COX17] | 8.21 |
| LNGSI [PHF20L1] | 0.416 |
| LNGVQAQRPLGVMTKCSCTTVLKELRLLPFF [DYTN] | 8.97 |
| LNI [WDR78] | 0.527 |
| LNILKCKASTV [TRAPPC6B] | 1.63 |
| LNKLKMDLFFFNGNRTLCQITSYRNNSLFLTNLVLPYTSTGF [PTEN] | 9.05 |
| LNLKKSFQ [CCDC160] | 1.05 |
| LNLNGHYKLSNST [ARMC4] | 1.8 |
| LNQFLGLTAM [BTN2A1] | 12.4 |
| LNQS [CFH] | 0.385 |
| LNQSVFPACAELLI [ZP4] | 3.4 |
| LNREKKLQVVLKEMQLFKSLCIVLILFTMCNHLENGYFYNLNNKQVLS [C8orf34] | 2.33 |
| LNRKKSPK [MDN1] | 0.34 |
| LNRQDRLWERGSFHKRKMVGLFPE [C10orf53] | 7.23 |
| LNWD [PIK3C3] | 0.342 |
| LPAAPGTRGYTPVSLRE [KRTAP12-3] | 0.986 |
